Results on one variant are retold here after IntAct's records for PubMed 19171758.

To fix the notation:
B1: BAR/IMD domain-containing adapter protein 2 (Homo sapiens), Q9UQB8-4 (parent)
chain: MSLSRSEEMHRLTENVYKTIMEQFNPSLRNFIAMGKNYEKALAGVTYAAKGYFDALVKMGELASESQGSKELGDVLFQMAEVHRQIQNQLEEMLKSFHNELLTQLEQKVELDSRYLSAALKKYQTEQRSKGDALDKCQAELKKLRKKSQGSKNPQKYSDKELQYIDAISNKQGELENYVSDGYKTALTEERRRFCFLVEKQCAVAKNSAAYHSKGKELLAQKLPLWQQACADPSKIPERAVQLMQQVASNGATLPSALSASKSNLVISDPIPGAKPLPVPPELAPFVGRMSAQESTPIMNGVTGPDGEDYSPWADRKAAQPKSLSPPQSQSKLSDSYSNTLPVRKSVTPKNSYATTENKTLPRSSSMAAGLERNGRMRVKAIFSHAAGDNSTLLSFKEGDLITLLVPEARDGWHYGESEKTKMRGWFPFSYTRVLDSDGSDRLHMSLQQGKSSSTGNLLDKDDLAIPPPDYGAASRAFPAQTASGFKQRPYSVAVPAFSQGLDDYGARSMSSGSGTLVSTV

The test covers variants of B1. Conditions: with rac1_human RAC1, P63000.
On to MSLSRSEEMHELTENVYKTIMEQFNPSLRNFIAMGKNYEKALAGVTYAAKGYFDALVKMGELASESQGSKELGDVLFQMAEVHRQIQNQLEEMLKSFHNELLTQLEQKVELDSRYLSAALKKYQTEQRSKGDALDKCQAELKELRKKSQGSKNPQKYSDKELQYIDAISNKQGELENYVSDGYKTALTEERRRFCFLVEKQCAVAKNSAAYHSKGKELLAQKLPLWQQACADPSKIPERAVQLMQQVASNGATLPSALSASKSNLVISDPIPGAKPLPVPPELAPFVGRMSAQESTPIMNGVTGPDGEDYSPWADRKAAQPKSLSPPQSQSKLSDSYSNTLPVRKSVTPKNSYATTENKTLPRSSSMAAGLERNGRMRVKAIFSHAAGDNSTLLSFKEGDLITLLVPEARDGWHYGESEKTKMRGWFPFSYTRVLDSDGSDRLHMSLQQGKSSSTGNLLDKDDLAIPPPDYGAASRAFPAQTASGFKQRPYSVAVPAFSQGLDDYGARSMSSGSGTLVSTV [R11E;K143E], for which the “effect of a mutation on the interaction” value is “disrupting interaction”.
